Data: the nanobody polyreactivity screen of Harvey et al. (2022)

Assay: yeast display, Sf9 membrane polyspecificity reagent, FACS + sequencing; frameworks hold sequencing errors
How it was run: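 Nanobodies came from a synthetic yeast display library in Saccharomyces cerevisiae BJ5465, induced with galactose for 36–48 hours and stained for 1 hour at 4 °C with 10% biotinylated, detergent-solubilized Sf9 membrane reagent. Cells were enriched on streptavidin microbeads and then FACS-sorted, with low and high (top ~1%) gates set on anti-HA fluorescence for expression and streptavidin fluorescence for reagent binding. Each polyreactivity label reflects the gate a clone came from. Genes were amplified by colony PCR, sequenced by MiSeq 2 × 250 and filtered by CDR length.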

Row | Sequence | polyreactivity (PSR sort gate)
1 | QVQLVESGGGLVQAGGRLRFSCAASGSTIRRKAMGWSRQAPGKERELVARISYRGGSTYYADSVKGRFTSSRDNAKNTVYLQMNSLKPEATAVYYCAAPVYGVPEYDYWGQGPQVTVSS | low polyreactivity
2 | QVHLVESGGGLVQAGGSLRLSCAASGRTLYCYAMGWYRQAPGKERELVASIRSGGSTNYADSVKGRFTISRDNAKNTVYLQMNSLKPEVTAVYYCNTGSRLDRVDSWGQGTQVTVSS | low polyreactivity
3 | QVQLVESGGGLVQAGGSLRLSCAASGSIFTVYAMGWYRQAPGKERELVAVINYRGGNTYYADSVKGRFTISRDNAKNTVYLQMNSLKPEDTAVYYCATEVSWHWYQLSVPRMDYWGQGTQVTVSS | low polyreactivity
4 | QVQLVESGGGLVQAGGSLRLSCAASGSIFYYNAMGWYRPAPGKERELVAAITWSGGTYYADSVKGRFTISRDNAKNTVYLQMNSLKPEDTAVYYCNGARLYKWSFTPKFEMDHWGQGTQVTVSS | low polyreactivity
5 | QVQLVESGGGLVQAGGSLRLSCAASGSTFKRNARGWYRQAPGKERELVASISKRGGSTYYADSVKGRFTISRDNAKNTVYLQMNSLIPEDTAVYYCAKTWQNGDRNTIGSVYAYDYWGQGTQVTVSS | high polyreactivity
6 | QVQLVDSGGGLDQAGGSLRLSCAASGFTFGDNAMGCYRQAPGKERELVARITGDGSTYYADSVKGRFTISRDNAKNTVYLQMNSLKPEDTAFFYCAADYSPRYTQIEYGYWGQGTQVTVSS | low polyreactivity
7 | QVQLVESGGGLVQAGGSLRLSCAASGLIFFYYAMGWYRQAPGKERELVATINLNGGSTYYADSVKGRFTISRDNAKNSVYLQMNSLKPEDTAGYYCAAAGTKYYARYYYWGQGTQVTVSS | high polyreactivity
8 | QVHLVESGGGLVQAGGSLRLSCAASGSTFPYYAMGWYRQAPGKEREWVAAITSSASTYFADSVKGRFTISRDNAKNTVYLQMNSLKPEDTAVYYCAVRSPYRLSSWRVGYWGQGTQVTVSS | high polyreactivity
9 | QVQLVESGGGLVQAGGSLRLSCAASARTFYYYAMGWYRQAPGKERELVAAISWSGGRTYYADSVKGRFTISRDNAKNTVYLQMNSLKPEDTAVYYFAVPYPAEGYGGDYWGQGTQVTVSS | low polyreactivity
10 | QVQLVESGGGLVQAGGSLRLSCAASGRTFLWNAMGWYRQAPGKERELVAAIRGGTITYYADSVKGRFTISRDNAKNTVYLQMNSLKPEDTAVYYCAATSARGQYYWYCFNGYPYSEFGYWGQGTQVTVSS | low polyreactivity
11 | QVQLVESGGGLVQAGGSLRLSCAASGRTFLEYAMGWYRQAPGKERELVASITWSGDTTYYADSVKGRFTISRDNAKNTVYLQMNSLKPEDTAVYYCAAGYYYPNTYYSYDWYDYWGQGTQVTVSS | low polyreactivity
12 | QVQLVESGGGLVQAGGSLRLSCAASGSTFAFNAMGWYRQAPGKERELVAGITWSSGSTYYADSVKGRFTISRDNAKNTVYLQMNSLKPEDTAVYYCAVSGTRTIWGQGTQVTVSS | high polyreactivity
13 | QVQLVESGGGLVQAGGSLRLSCAASGSIFFLYAMGWYRQAPGKEREFVAAITGTADSTYYADSVKGRFTISRDDAKNTVYLQMNSLKPEDTAVYYCATDYWSSVKLDDYWGQGTQVTVSS | low polyreactivity
14 | QVQLVESGGGLVQAGGRLRLSCAASGRSFYSYTMGWYRQAPGKERELVAAIRKSGGRTYYADSVKGRFTISRDNAKNTVYLQMNSLKPEDTAVYYCATTNYELSYYYWGQGTQVTVSS | high polyreactivity
15 | QVQLVESGGGLVQAGCSLRLSSAASGSIFDDNALGRYRPAPGTDRELVAAISDNDGSTYYADSVKGRFTISRDNAKTTVYVQMNSLKADETAVYYCAATAQEWYPAVYNQYYYWGQGTQVTVSS | low polyreactivity
16 | QVQLVESGGGLVQAGGSLRLSCAASGSIFNQYAMGWHRQAPGKERELVAAISSSGGSTYYADSVKGRFTISRDNAKNTVYLQMNSLKPEDTAVYYCAARPSGRGYYLLGYWGQGTQVTVSS | low polyreactivity

Row | Sequence | polyreactivity (PSR sort gate)
17 | QVQLVESGGGLVQAGGSLRLSCAASGYTFRYYAMGWYRQAPGKERELVAAISRSGGSTYYADSVKGRFTISRDNAKNTVSLQMNSLKPEDTAVYYCAVALARPYEDYDYWGQGTQVTVSS | high polyreactivity
18 | QVQLVESGGGLVQAGGSLRLSCAASGITIKRYDMGWYRQAPGKEREFVATISQSGTSTYYADSVKGRFTISRDNAKNTVYLQMNSLKPEDTAVYYCAAYYIGYWYGYYSWGQGTQVTVSS | low polyreactivity
19 | HVQLVESGGGLVQAGGSLRLSCAASGSTFTRNAMGWSRQAPGKEWELVAVISSRGGRTYYADSVKGRFTISRDNAKNTVDLQMNSLKPEATAVYYCAARYVIPLGNTYDYWGPGTQVTVSS | high polyreactivity
20 | QVHLVESGGCLVQAGGTLRLSCAASGFTYKWYAMGWYRQAPGKERELVATITIGGRTNYADSVKGRFTISRDNAKNTVYLQMNSLKTEETAVYYCATYFVGLRLSDYDYWGQGTQVTVSS | low polyreactivity
21 | QVQLVESGGGLVQAGGSLRLSCAASGSIFWYYAMGWSRQAPGKERELVASISSSGGSTYYADSVKGRFTISRDNAKNTVYLQMNSLKPEDTAVYYCAVRSPYRLSRWRVGYWGQGTQVTVSS | high polyreactivity
22 | QVQLVESGGGLVQAGGSLRLSCAASGSTFQSYTMGWYRQAPGKERELVATITSTSSTSYADSVKGRFTISRDNAKNTVYLQMNSLKPEDTAVYYCNAEGLHWGQVTQVTVSS | low polyreactivity
23 | QVQLVESGGGLVQAGGSLRLSCAASVLIIWLYTMGWYRQAPGKERELVAAIDWSGGSTYYADSVKGRFTMSRDIAKNTVYLQMNRLKPEDTAVYYCAADPEPSYRFDYGGQGTQVTVSS | low polyreactivity
24 | QVQLVESGGGLVQAGGSLRISCAASGFTFVAYAMGWYRKAPGKERELVAAISRRGGTTYYADSVKGRFTISRDNAKNTVYLQMNSLKPEDTAVYYCNARGFPGKFGYWGQGTQVTVSS | high polyreactivity
25 | QVQLVESGGGLVQAGGSLRLSCAASGFTFSDNAMGWYRQAPGKDRELVAAISRSGGNTHYADSVKGRFTISRDNAKNTVYFQMNSLKPEDTAVYYCAARVQGRGYGYYYWGQGTQVSVSS | high polyreactivity
26 | QVHLVETGGGLVQAGGSLRLSCAASGFTFAYYAMGWYRQAPGKEREFVAVITWSGGDKYYADSVKGRFTISRDIAKNTVYLQMNSLKPVDTSVYYCNADAYRITRYGYDYWGQGTQVTVSS | high polyreactivity
27 | QVQLVESGGGLVQAGGSHRLSCAASGRIFRGYPMGWYRPAPGKERELGAAITSRGGSTYADSVKGRFTISRDNAKNTVYLQMNSLKPEDSAVYYCNAGYRAYSAKLVFRGYPRYDYWGQGTQVTVSS | low polyreactivity
28 | QVQLVESGGGLVQAGGSLRLSCAASGRIFGRNAMAWYRQAPGKERELVAAISTSGGTYYADSVKGRFTISRDNAKNTVYLQMISLKPEDTAVYYCNDRGRTQQRWVDYWGQRTQVTVSS | high polyreactivity
29 | QVQLVESGGGLVQAGGSLRLSCAASGSIFDYNAMGWYRQAPGKERELVAAITYSGGTTYADSVKGRFTISRDNAKNTVYLQMNSLKPEDTAVYYCAATSYARFAYYYWGQGTQVTVSS | low polyreactivity
30 | QVQLVESGGPLVQAGGSLRLICAASGRTFYYNAKGWYRQAPGKDRELVAAITWSGGGTYYADSVKGRFTISRDNAKNTDYLQMNSLKPEDTAFYYCAAEDWSIEYEYWGQGTQVTVSS | high polyreactivity
31 | QVQLVESGGRLVQAGGSLRLSCAASGSIFDAYAMGWYRQAPGKERELVAAITTVGSTNYADSVKGRFTISRDNAKNTVYLQMNSLKPEDTAVYYCNADCNTDIVPTPYDYWGQGTQVTVSS | low polyreactivity
32 | QVQLVESGGGLVQAGGSLRLSCSASGSTFHRYAMGWYIQAPGKERELVARINGSGGSTYYADSVKGRFTISRDNAKNTVYLQMNSLKPEDSAVYYCAADGLYYTYGYDYWGQGTQVTVSS | low polyreactivity
